The results in this text go back to IntAct's records for PubMed 9418872.

To fix the notation:
B1: Tyrosine-protein phosphatase non-receptor type 1 (Homo sapiens), P18031 (parent)
chain: MEMEKEFEQIDKSGSWAAIYQDIRHEASDFPCRVAKLPKNKNRNRYRDVSPFDHSRIKLHQEDNDYINASLIKMEEAQRSYILTQGPLPNTCGHFWEMVWEQKSRGVVMLNRVMEKGSLKCAQYWPQKEEKEMIFEDTNLKLTLISEDIKSYYTVRQLELENLTTQETREILHFHYTTWPDFGVPESPASFLNFLFKVRESGSLSPEHGPVVVHCSAGIGRSGTFCLADTCLLLMDKRKDPSSVDIKKVLLEMRKFRMGLIQTADQLRFSYLAVIEGAKFIMGDSSVQDQWKELSHEDLEPPPEHIPPPPRPPKRILEPHNGKCREFFPNHQWVKEETQEDKDCPIKEEKGSPLNAAPYGIESMSQDTEVRSRVVGGSLRGAQAASPAKGEPSLPEKDEDHALSYWKPFLVNMCVATVLTAGAYLCYRFLFNSNT
B2: Tyrosine-protein phosphatase non-receptor type 1 (Homo sapiens), P18031 (parent)
chain: B1 chain
partner: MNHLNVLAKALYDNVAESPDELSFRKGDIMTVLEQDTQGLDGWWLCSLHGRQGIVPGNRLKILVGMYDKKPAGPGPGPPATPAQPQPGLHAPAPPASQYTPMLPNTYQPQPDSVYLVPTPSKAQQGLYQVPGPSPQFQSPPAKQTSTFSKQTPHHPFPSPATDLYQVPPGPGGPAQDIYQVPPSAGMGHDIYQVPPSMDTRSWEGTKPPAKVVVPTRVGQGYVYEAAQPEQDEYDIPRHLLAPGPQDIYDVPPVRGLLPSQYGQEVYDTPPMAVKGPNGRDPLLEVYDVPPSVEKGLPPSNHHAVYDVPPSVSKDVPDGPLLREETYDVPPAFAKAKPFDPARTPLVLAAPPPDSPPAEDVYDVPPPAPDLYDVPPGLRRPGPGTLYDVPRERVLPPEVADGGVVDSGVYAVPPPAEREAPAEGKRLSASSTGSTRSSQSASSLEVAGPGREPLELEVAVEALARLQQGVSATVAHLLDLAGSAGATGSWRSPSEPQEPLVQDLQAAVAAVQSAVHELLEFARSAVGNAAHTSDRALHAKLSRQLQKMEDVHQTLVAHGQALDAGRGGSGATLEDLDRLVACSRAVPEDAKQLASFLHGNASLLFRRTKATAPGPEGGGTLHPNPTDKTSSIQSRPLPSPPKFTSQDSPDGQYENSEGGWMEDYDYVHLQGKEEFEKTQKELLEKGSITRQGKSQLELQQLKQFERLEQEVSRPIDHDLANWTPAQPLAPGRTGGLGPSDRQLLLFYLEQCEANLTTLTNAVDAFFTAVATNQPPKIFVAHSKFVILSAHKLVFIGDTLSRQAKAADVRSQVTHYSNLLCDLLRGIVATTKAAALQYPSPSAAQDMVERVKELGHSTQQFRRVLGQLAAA

Variants of B1 are the subject of one test. To be noted: with paxi_mouse Pxn.
In the case of MEMEKEFEQIDKSGSWAAIYQDIRHEASDFPCRVAKLPKNKNRNRYRDVSPFDHSRIKLHQEDNDYINASLIKMEEAQRSYILTQGPLPNTCGHFWEMVWEQKSRGVVMLNRVMEKGSLKCAQYWPQKEEKEMIFEDTNLKLTLISEDIKSYYTVRQLELENLTTQETREILHFHYTTWPDFGVPESPASFLNFLFKVRESGSLSPEHGPVVVHCSAGIGRSGTFCLADTCLLLMDKRKDPSSVDIKKVLLEMRKFRMGLIQTADQLRFSYLAVIEGAKFIMGDSSVQDQWKELSHEDLEPPPEHIPPPARPPKRILEPHNGKCREFFPNHQWVKEETQEDKDCPIKEEKGSPLNAAPYGIESMSQDTEVRSRVVGGSLRGAQAASPAKGEPSLPEKDEDHALSYWKPFLVNMCVATVLTAGAYLCYRFLFNSNT [P310A], the “effect of a mutation on the interaction” value is reported as “disrupting interaction”. MEMEKEFEQIDKSGSWAAIYQDIRHEASDFPCRVAKLPKNKNRNRYRDVSPFDHSRIKLHQEDNDYINASLIKMEEAQRSYILTQGPLPNTCGHFWEMVWEQKSRGVVMLNRVMEKGSLKCAQYWPQKEEKEMIFEDTNLKLTLISEDIKSYYTVRQLELENLTTQETREILHFHYTTWPDFGVPESPASFLNFLFKVRESGSLSPEHGPVVVHCSAGIGRSGTFCLADTCLLLMDKRKDPSSVDIKKVLLEMRKFRMGLIQTADQLRFSYLAVIEGAKFIMGDSSVQDQWKELSHEDLEPPPEHIPPAPRPPKRILEPHNGKCREFFPNHQWVKEETQEDKDCPIKEEKGSPLNAAPYGIESMSQDTEVRSRVVGGSLRGAQAASPAKGEPSLPEKDEDHALSYWKPFLVNMCVATVLTAGAYLCYRFLFNSNT [P309A]: the “effect of a mutation on the interaction” value is reported as “disrupting interaction”.

The variants in another test derive from B1. To be noted: with fak1_mouse Ptk2, P34152.
Chain of fak1_mouse Ptk2, P34152 (P34152 whole entry): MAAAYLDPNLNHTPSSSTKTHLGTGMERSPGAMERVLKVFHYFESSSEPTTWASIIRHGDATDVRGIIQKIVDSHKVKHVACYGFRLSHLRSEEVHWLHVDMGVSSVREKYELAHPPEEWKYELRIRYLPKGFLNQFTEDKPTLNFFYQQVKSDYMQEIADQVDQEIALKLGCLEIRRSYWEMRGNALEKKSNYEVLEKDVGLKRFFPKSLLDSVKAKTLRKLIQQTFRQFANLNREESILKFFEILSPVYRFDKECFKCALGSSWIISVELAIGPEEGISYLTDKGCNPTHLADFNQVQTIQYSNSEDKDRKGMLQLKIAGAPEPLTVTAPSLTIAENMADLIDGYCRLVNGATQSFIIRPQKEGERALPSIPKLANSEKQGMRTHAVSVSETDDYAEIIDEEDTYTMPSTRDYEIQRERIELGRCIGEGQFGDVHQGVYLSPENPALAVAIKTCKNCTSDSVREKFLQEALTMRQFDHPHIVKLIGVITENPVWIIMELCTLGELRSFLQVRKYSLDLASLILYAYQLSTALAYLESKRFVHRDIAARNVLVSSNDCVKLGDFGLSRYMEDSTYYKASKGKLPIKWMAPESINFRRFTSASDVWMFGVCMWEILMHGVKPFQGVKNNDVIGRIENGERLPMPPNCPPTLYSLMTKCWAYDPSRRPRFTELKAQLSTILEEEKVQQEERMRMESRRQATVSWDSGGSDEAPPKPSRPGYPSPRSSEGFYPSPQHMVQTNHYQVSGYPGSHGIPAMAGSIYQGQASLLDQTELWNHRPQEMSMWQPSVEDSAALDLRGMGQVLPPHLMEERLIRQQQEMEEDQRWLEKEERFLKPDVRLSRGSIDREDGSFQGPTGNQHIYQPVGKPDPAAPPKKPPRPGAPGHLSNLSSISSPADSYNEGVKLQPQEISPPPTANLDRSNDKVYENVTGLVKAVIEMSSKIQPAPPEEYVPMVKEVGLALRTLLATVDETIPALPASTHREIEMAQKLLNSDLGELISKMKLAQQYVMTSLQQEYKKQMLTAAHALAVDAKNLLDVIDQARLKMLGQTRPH
In the case of MEMEKEFEQIDKSGSWAAIYQDIRHEASDFPCRVAKLPKNKNRNRYRDVSPFDHSRIKLHQEDNDYINASLIKMEEAQRSYILTQGPLPNTCGHFWEMVWEQKSRGVVMLNRVMEKGSLKCAQYWPQKEEKEMIFEDTNLKLTLISEDIKSYYTVRQLELENLTTQETREILHFHYTTWPDFGVPESPASFLNFLFKVRESGSLSPEHGPVVVHCSAGIGRSGTFCLADTCLLLMDKRKDPSSVDIKKVLLEMRKFRMGLIQTADQLRFSYLAVIEGAKFIMGDSSVQDQWKELSHEDLEPPPEHIPPPARPPKRILEPHNGKCREFFPNHQWVKEETQEDKDCPIKEEKGSPLNAAPYGIESMSQDTEVRSRVVGGSLRGAQAASPAKGEPSLPEKDEDHALSYWKPFLVNMCVATVLTAGAYLCYRFLFNSNT [P310A], the “effect of a mutation on the interaction” value was “disrupting interaction”. The same measure, in the same setting: under MEMEKEFEQIDKSGSWAAIYQDIRHEASDFPCRVAKLPKNKNRNRYRDVSPFDHSRIKLHQEDNDYINASLIKMEEAQRSYILTQGPLPNTCGHFWEMVWEQKSRGVVMLNRVMEKGSLKCAQYWPQKEEKEMIFEDTNLKLTLISEDIKSYYTVRQLELENLTTQETREILHFHYTTWPDFGVPESPASFLNFLFKVRESGSLSPEHGPVVVHCSAGIGRSGTFCLADTCLLLMDKRKDPSSVDIKKVLLEMRKFRMGLIQTADQLRFSYLAVIEGAKFIMGDSSVQDQWKELSHEDLEPPPEHIPPAPRPPKRILEPHNGKCREFFPNHQWVKEETQEDKDCPIKEEKGSPLNAAPYGIESMSQDTEVRSRVVGGSLRGAQAASPAKGEPSLPEKDEDHALSYWKPFLVNMCVATVLTAGAYLCYRFLFNSNT [P309A] stands “disrupting interaction”.

The variants in another test derive from B2. The following applies: with bcar1_human BCAR1, P56945.
Turning to MEMEKEFEQIDKSGSWAAIYQDIRHEASDFPCRVAKLPKNKNRNRYRDVSPFDHSRIKLHQEDNDYINASLIKMEEAQRSYILTQGPLPNTCGHFWEMVWEQKSRGVVMLNRVMEKGSLKCAQYWPQKEEKEMIFEDTNLKLTLISEDIKSYYTVRQLELENLTTQETREILHFHYTTWPDFGVPESPASFLNFLFKVRESGSLSPEHGPVVVHCSAGIGRSGTFCLADTCLLLMDKRKDPSSVDIKKVLLEMRKFRMGLIQTADQLRFSYLAVIEGAKFIMGDSSVQDQWKELSHEDLEPPPEHIPPAPRPPKRILEPHNGKCREFFPNHQWVKEETQEDKDCPIKEEKGSPLNAAPYGIESMSQDTEVRSRVVGGSLRGAQAASPAKGEPSLPEKDEDHALSYWKPFLVNMCVATVLTAGAYLCYRFLFNSNT [P309A], the “effect of a mutation on the interaction” value is given as “disrupting interaction”. Still for that read-out and setting: then MEMEKEFEQIDKSGSWAAIYQDIRHEASDFPCRVAKLPKNKNRNRYRDVSPFDHSRIKLHQEDNDYINASLIKMEEAQRSYILTQGPLPNTCGHFWEMVWEQKSRGVVMLNRVMEKGSLKCAQYWPQKEEKEMIFEDTNLKLTLISEDIKSYYTVRQLELENLTTQETREILHFHYTTWPDFGVPESPASFLNFLFKVRESGSLSPEHGPVVVHCSAGIGRSGTFCLADTCLLLMDKRKDPSSVDIKKVLLEMRKFRMGLIQTADQLRFSYLAVIEGAKFIMGDSSVQDQWKELSHEDLEPPPEHIPPPARPPKRILEPHNGKCREFFPNHQWVKEETQEDKDCPIKEEKGSPLNAAPYGIESMSQDTEVRSRVVGGSLRGAQAASPAKGEPSLPEKDEDHALSYWKPFLVNMCVATVLTAGAYLCYRFLFNSNT [P310A], with “disrupting interaction”.
